This note sets out measurements from patent publication US20260103503A1.

Experiment [1] has as its target Tm NY-ESO (human). The experiment is described as follows: flow cytometry, tetramer staining of transduced CD4+ T cells; nt control Q2 0.56. (In general: Flow cytometry measures light scatter and fluorescence of single cells or particles in a stream.)
Experiment [2] addresses Tm NY-ESO (human). The experiment is described as follows: flow cytometry, tetramer staining of transduced CD8+ T cells; nt control Q2 0.79.
The target of experiment [3] is Tm NY-ESO (human). The experiment is described as follows: flow cytometry, tetramer staining of transduced CD4+ T cells; nt control Q1 0.020.
Experiment [4] concerns the target Tm NY-ESO (human). Put plainly: flow cytometry, tetramer staining of transduced CD8+ T cells; nt control Q1 0.084.
In experiment [5] the target is NY-ESO-1 peptide on HLA-A*02:01 (human). The experiment is described as follows: SPR as tabulated in Table 2 (BIAcore analysis); reference TCR; soluble, other.

What is called Kd is a measure of binding affinity in units of concentration. Low readings indicate tighter binding, high ones weaker binding. What is called koff is a measure of how fast the partners let go of each other. A low value points to a long-lived complex. The kon is the second-order rate constant of association. Read a low kon as slow association.

In turn, 1G4LY TCR on transduced T cells displayed a Q2 (Tm NY-ESO+ CD4+), percent of cells with Tm NY-ESO (human) [1] of 63.2%. The Q2 (Tm NY-ESO+ CD8+), percent of cells in the experiment with Tm NY-ESO (human) [2] came to 64.9%. This substance also displayed a Q1 (Tm NY-ESO+ CD4-), percent of cells with Tm NY-ESO (human) [3] of 0.89%. In the experiment with Tm NY-ESO (human) [4], this substance registered a Q1 (Tm NY-ESO+ CD8-), percent of cells of 2.53%.
As for 1G4, in experiment [5], the Kd was determined as 14.2 µM, the koff amounted to 0.12 s⁻¹ and the kon came out at 17000 M⁻¹ s⁻¹.
